# Data: the supplement of paper PMC10724198
# ± gives the standard deviation of the averaged measurements.
# Columns and labels:
# [1] = test system: Saccharomyces cerevisiae; experiment: protein stability index of tFT-peptide fusion (C-terminal peptide) (PSI (0-1 scale)); higher = more stable (slower turnover); conditions: genetic background: wild type; temperature: 30 C
# [2] = test system: Saccharomyces cerevisiae; experiment: as above
# Procedure: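 MPS profiling in S. cerevisiae of the tFT-X12 degron library: putative degron peptides plus stable controls, 12 aa, fused to the C-terminus of a sfGFP-mCherry timer. Cells are FACS-sorted into 8 mCherry/sfGFP bins and deep-sequenced. PSI runs from 0 (unstable) to 1 (stable). Backgrounds are wild type, das1Δ and doa10Δ at 30 °C, and wild type, das1Δ, cdc34-1 and cdc53-1 at 37 °C; 2-3 technical replicates each.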
# [3] = genetic background: cdc34-1, temperature: 37 C
# [4] = genetic background: cdc53-1, temperature: 37 C
# [5] = genetic background: das1 deletion, temperature: 30 C
# [6] = genetic background: das1 deletion, temperature: 37 C
# [7] = genetic background: doa10 deletion, temperature: 30 C
# [8] = genetic background: wild type, temperature: 30 C
# [9] = genetic background: wild type, temperature: 37 C
# 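Further: PSI is a weighted mean of sequencing reads over stability bins, variants kept only with over 10 reads, mCherry proximal and sfGFP distal, peptide attached via GGGS linker.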
Sequence,protein stability index [1],"protein stability index [2, 3]","protein stability index [2, 4]","protein stability index [2, 5]","protein stability index [2, 6]","protein stability index [2, 7]","protein stability index [2, 8]","protein stability index [2, 9]"
WGGEFLSLTLSS,0.684 ± 0.027,0.732 ± 0.028,0.761 ± 0.018,0.664 ± 0.02,0.7821 ± 0.0073,0.679 ± 0.025,0.683 ± 0.021,0.743 ± 0.025
WGIPRRPTLFIP,0.434 ± 0.015,0.65 ± 0.0098,0.749 ± 0.03,0.658 ± 0.011,0.7417 ± 0.00092,0.296 ± 0.023,0.325 ± 0.035,0.5193 ± 0.0044
WHLLRFETQMFC,0.172 ± 0.049,0.571 ± 0.018,0.7091 ± 0.0027,0.611 ± 0.037,0.712 ± 0.022,0.151 ± 0.028,0.164 ± 0.016,0.337 ± 0.0026
WHVSLRFAFYVF,0.22 ± 0.12,0.2459 ± 0.0022,0.326 ± 0.02,0.235 ± 0.019,0.342 ± 0.011,0.136 ± 0.0056,0.158 ± 0.018,0.263 ± 0.0032
WIVQCCLYVPVQ,0.377 ± 0.0076,0.288 ± 0.011,0.314 ± 0.017,0.25 ± 0.025,0.3619 ± 0.0011,0.212 ± 0.0053,0.237 ± 0.02,0.356 ± 0.024
WIYKIVTYEKKS,0.145 ± 0.049,0.701 ± 0.05,0.701 ± 0.03,0.648 ± 0.041,0.705 ± 0.029,0.633 ± 0.038,0.633 ± 0.036,0.702 ± 0.0082
WLGLFAFRRCLV,0.31 ± 0.018,0.544 ± 0.03,0.583 ± 0.013,0.463 ± 0.018,0.5898 ± 0.0041,0.194 ± 0.012,0.223 ± 0.025,0.3983 ± 0.0017
WLVIWPRKLSTV,0.481 ± 0.0083,0.588 ± 0.039,0.632 ± 0.005,0.477 ± 0.027,0.6179 ± 0.0036,0.359 ± 0.014,0.397 ± 0.022,0.573 ± 0.031
WLVVGGVVLLVV,0.252 ± 0.0089,0.246 ± 0.029,0.28548 ± 0.00015,0.213 ± 0.033,0.395 ± 0.009,0.175 ± 0.0046,0.197 ± 0.026,0.37 ± 0.0047
WRLRIAAVVRSS,0.281 ± 0.028,0.556 ± 0.047,0.655 ± 0.031,0.586 ± 0.011,0.6471 ± 0.0012,0.123 ± 0.0017,0.142 ± 0.021,0.287 ± 0.016
WRVVVSCALHVC,0.085736 ± 1.1e-05,0.123 ± 0.014,0.167 ± 0.0054,0.169 ± 0.017,0.274 ± 0.0034,0.0395 ± 0.017,0.0423 ± 0.009,0.0863 ± 0.026
WSCFLLLLSLSL,0.45 ± 0.0067,0.424 ± 0.056,0.4452 ± 0.0035,0.417 ± 0.039,0.5236 ± 0.0051,0.482 ± 0.013,0.411 ± 0.011,0.496 ± 0.011
WSFAPRLRCSYL,0.809 ± 0.055,0.927 ± 0.0095,0.925 ± 0.012,0.784 ± 0.029,0.883 ± 0.012,0.7642 ± 0.004,0.792 ± 0.048,0.878 ± 0.029
WSMSSPPLLLAS,0.36 ± 0.0058,0.314 ± 0.014,0.301 ± 0.017,0.272 ± 0.017,0.377 ± 0.0019,0.22 ± 0.0085,0.276 ± 0.013,0.349 ± 0.019
WVIWFFVAACLR,0.3339 ± 0.00096,0.219 ± 0.006,0.24 ± 0.018,0.209 ± 0.024,0.347 ± 0.025,0.239 ± 0.0077,0.212 ± 0.022,0.311 ± 0.0079
WVVVGWVGVGFR,0.445 ± 0.029,0.508 ± 0.029,0.548 ± 0.038,0.383 ± 0.027,0.5747 ± 0.0021,0.361 ± 0.019,0.378 ± 0.016,0.55387 ± 0.00053
WVVWVLVGGFGG,0.384 ± 0.032,0.299 ± 0.022,0.42448 ± 0.00021,0.277 ± 0.036,0.4813 ± 0.0047,0.232 ± 0.0043,0.266 ± 0.021,0.449 ± 0.03
WVVWWFACVFGV,0.309 ± 0.049,0.346 ± 0.009,0.404 ± 0.0089,0.286 ± 0.033,0.429 ± 0.019,0.264 ± 0.008,0.28 ± 0.019,0.413 ± 0.0073
WVYVFVSLFFVV,0.263 ± 0.0029,0.185 ± 0.0071,0.2552 ± 0.0011,0.204 ± 0.029,0.347 ± 0.013,0.196 ± 0.017,0.17 ± 0.018,0.289 ± 0.0062
WYLLCESCLLCL,0.494 ± 0.0075,0.534 ± 0.021,0.536 ± 0.0079,0.406 ± 0.025,0.562 ± 0.011,0.39 ± 0.013,0.408 ± 0.025,0.558 ± 0.0046

Sequence,protein stability index [1],"protein stability index [2, 3]","protein stability index [2, 4]","protein stability index [2, 5]","protein stability index [2, 6]","protein stability index [2, 7]","protein stability index [2, 8]","protein stability index [2, 9]"
WYVRVYVLSVES,0.237 ± 0.019,0.136 ± 0.021,0.176 ± 0.028,0.186 ± 0.029,0.3115 ± 0.0015,0.137 ± 0.0079,0.168 ± 0.018,0.264 ± 0.022
YCAAVCFWGLYC,0.242 ± 0.024,0.522 ± 0.015,0.654 ± 0.023,0.541 ± 0.029,0.668 ± 0.012,0.13 ± 0.0034,0.154 ± 0.013,0.233 ± 0.011
YDVQIEFCVVEV,0.442 ± 0.0093,0.601 ± 0.035,0.57 ± 0.019,0.365 ± 0.03,0.5694 ± 0.0029,0.347 ± 0.004,0.379 ± 0.017,0.547 ± 0.019
YFFFFLHFNFAF,0.2803 ± 0.002,0.145 ± 0.062,0.169 ± 0.036,0.246 ± 0.023,0.35 ± 0.0091,0.313 ± 0.034,0.225 ± 0.059,0.267 ± 0.021
YFFFYFFLLFHL,0.375 ± 0.071,0.265 ± 0.051,0.272 ± 0.036,0.332 ± 0.034,0.45 ± 0.045,0.416 ± 0.015,0.3115 ± 0.0019,0.429 ± 0.037
YFWWLWMSFWVG,0.4702 ± 0.0044,0.4935 ± 0.0028,0.53 ± 0.011,0.43 ± 0.023,0.59 ± 0.066,0.419 ± 0.022,0.403 ± 0.015,0.539 ± 0.013
YGWGFLFILTLM,0.182 ± 0.01,0.15 ± 0.032,0.153 ± 0.03,0.262 ± 0.038,0.317 ± 0.0042,0.14 ± 0.024,0.101 ± 0.018,0.151 ± 0.016
YHGVYLARVLQA,0.45 ± 0.041,0.639 ± 0.0084,0.677 ± 0.021,0.604 ± 0.011,0.69 ± 0.015,0.243 ± 0.011,0.286 ± 0.024,0.501 ± 0.029
YIFLLRFFFFFS,0.358 ± 0.028,0.367 ± 0.014,0.435 ± 0.0084,0.333 ± 0.042,0.515 ± 0.03,0.299 ± 0.011,0.304 ± 0.044,0.435 ± 0.022
YILIKEVLYAVC,0.274 ± 0.018,0.169 ± 0.0061,0.171 ± 0.0086,0.182 ± 0.028,0.281 ± 0.0066,0.128 ± 0.023,0.17 ± 0.024,0.236 ± 0.0088
YIRINNIYWKKS,0.399 ± 0.029,0.58 ± 0.016,0.755 ± 0.024,0.669 ± 0.023,0.722 ± 0.012,0.182 ± 0.0071,0.227 ± 0.034,0.536 ± 0.032
YLFPHVRPKFPG,0.488 ± 0.091,0.693 ± 0.042,0.747 ± 0.014,0.658 ± 0.019,0.7316 ± 0.0071,0.667 ± 0.0085,0.664 ± 0.016,0.721 ± 0.015
YLVSFVAFLRLF,0.143 ± 0.19,0.336 ± 0.02,0.446 ± 0.013,0.422 ± 0.025,0.5418 ± 0.0026,0.0967 ± 0.012,0.0919 ± 0.018,0.1 ± 0.019
YMNLYKNVISVT,0.408 ± 0.057,0.473 ± 0.044,0.47 ± 0.054,0.378 ± 0.024,0.522 ± 0.0072,0.316 ± 0.021,0.353 ± 0.024,0.457 ± 0.0095
YMVESVWVLLGT,0.49 ± 0.016,0.573 ± 0.029,0.5755 ± 0.0052,0.431 ± 0.032,0.582 ± 0.0083,0.381 ± 0.014,0.421 ± 0.042,0.564 ± 0.0079
YPFIPLIVCGFF,0.404 ± 0.02,0.401 ± 0.028,0.41 ± 0.0085,0.344 ± 0.024,0.4747 ± 0.00094,0.395 ± 0.019,0.338 ± 0.018,0.448 ± 0.01
YPVGAAFIRARA,0.491 ± 0.011,0.45 ± 0.016,0.501 ± 0.021,0.361 ± 0.036,0.5378 ± 0.0026,0.326 ± 0.0087,0.377 ± 0.026,0.5174 ± 0.0047
YQHSRSGRNKII,0.235 ± 0.012,0.591 ± 0.12,0.724 ± 0.033,0.652 ± 0.028,0.716 ± 0.021,0.109 ± 0.0063,0.117 ± 0.034,0.122 ± 0.035
YSRFALRPQLLV,0.285 ± 0.011,0.553 ± 0.051,0.634 ± 0.013,0.512 ± 0.025,0.62 ± 0.029,0.172 ± 0.0042,0.184 ± 0.024,0.327 ± 0.0056
